Consider three proteins from paper PMC7911073, “Overproduction of Human Zip (SLC39) Zinc Transporters in Saccharomyces cerevisiae for Biophysical Characterization” (Cells, 2021).

Series [1] deals with the molecule itself. Briefly: SDS-PAGE with Coomassie staining of SEC-pure samples (monomer and dimer bands); fractions of the main SEC peak in DDM + CHS.
Series [2] concerns the molecule itself. In words: SDS-PAGE with Coomassie staining and immunoblot by the tag (monomer and dimer bands); affinity-pure fractions (IMAC or StrepII-tag affinity) of N-terminal hZIP1 fusions solubilized in 2% DDM + 0.2% CHS; blot with 6xHis mAb-HRP or Strep-Tactin HRP. In general terms: A western blot detects proteins with antibodies after separation by electrophoresis.

Series [3] concerns the molecule itself. In words: SDS-PAGE with Coomassie staining and in-gel GFP fluorescence (monomer and dimer bands); IMAC eluate of hZIP1-TEV-GFP-His solubilized in 2% DDM + 0.68% CHS.

B1: StrepII-TEV-hZIP1 (natural protein, human, UniProt Q9NY26 1-324, looked up)
chain: MGPWGEPELLVWRPEAVASEPPVPVGLEVKLGALVLLLVLTLLCSLVPICVLRRPGANHEGSASRQKALSLVSCFAGGVFLATCLLDLLPDYLAAIDEALAALHVTLQFPLQEFILAMGFFLVLVMEQITLAYKEQSGPSPLEETRALLGTVNGGPQHWHDGPGVPQASGAPATPSALRACVLVFSLALHSVFEGLAVGLQRDRARAMELCLALLLHKGILAVSLSLRLLQSHLRAQVVAGCGILFSCMTPLGIGLGAALAESAGPLHQLAQSVLEGMAAGTFLYITFLEILPQELASSEQRILKVILLLAGFALLTGLLFIQI
notes: human ZIP1 (hZIP1), full-length, codon-optimized cDNA; UniProt Q9NY26; A TEV protease site stands between the StrepII tag and hZIP1; not cleaved here; Predicted MW 36.5 kDa; also called N-terminal hZIP1 fusion; not shown: StrepII, N-terminal, kept
For B1, the binding result in series [1] is listed as “binds”.

B2: His-TEV-hZIP1 (natural protein, human, UniProt Q9NY26 1-324, looked up)
chain: B1 chain
notes: human ZIP1 (hZIP1), full-length, codon-optimized cDNA; UniProt Q9NY26; A TEV protease site stands between the His8 tag and hZIP1; also called N-terminal hZIP1 fusion; source: S. cerevisiae PAP1500, purified from crude membranes solubilized in 2% DDM + 0.2% CHS (IMAC); not shown: His8, N-terminal, kept
B2: in series [2], the binding result was “binds”.

B3: hZIP1-TEV-GFP-His (natural protein, human, UniProt Q9NY26 1-324, looked up)
chain: B1 chain
notes: human ZIP1 (hZIP1), full-length, codon-optimized cDNA synthesized by GenScript; UniProt Q9NY26; A TEV protease site (ENLYFQ↓SQF) stands between hZIP1 and GFP-His8; the fusion could not be cleaved by TEV protease; Predicted MW 63.3 kDa; also called hZIP1 C-terminally fused to TEV-GFP-His-tag; SLC39 family member; source: S. cerevisiae PAP1500, in whole-cell lysate; also purified from crude …
In the case of B3, the binding result in series [3] is recorded as “binds”.
